# Results taken from patent publication US20190142868A1, “METHODS OF TREATING DISEASES ASSOCIATED WITH ILC3 CELLS” (Instituto de Medicina Moleccular, priority 2016, published 2019).
# B1: IL-1β: recombinant protein from R&D Systems (401ML005), alarmin (protein, UniProt P10749 118-269, looked up)
# Interleukin-1 beta: VPIRQLHYRLRDEQQKSLVLSDPYELKALHLNGQNINQQVIFSMSFVQGEPSNDKIPVALGLKGKNLYLSCVMKDGTPTLQLESVDPKQYPKKKMEKRFVFNKIEVKSKVEFESAEFPNWYISTSQAEHKPVFLGNNSGQDIIDFTMESVSS
# B2: GDNF: Glial cell-derived neurotrophic factor, a GFRα1 ligand (protein, UniProt P39905 78-211, looked up)
# Glial cell line-derived …: SPDKQMAVLPRRERNRQAAAANPENSRGKGRRGQRGKNRGCVLTAIHLNVTDLGLGYETKEELIFRYCSGSCDAAETTYDKILKNLSRNRRLVSDKVGQACCRPIAFDDDLSFLDDNLVYHILRKHSAKRCGCI
# B3: IL-33: recombinant protein from R&D Systems (3626ML), alarmin (protein, UniProt Q8BVZ5 1-266, looked up)
# Interleukin-33: MRPRMKYSNSKISPAKFSSTAGEALVPPCKIRRSQQKTKEFCHVYCMRLRSGLTIRKETSYFRKEPTKRYSLKSGTKHEENFSAYPRDSRKRSLLGSIQAFAASVDTLSIQGTSLLTQSPASLSTYNDQSVSFVLENGCYVINVDDSGKDQEQDQVLLRYYESPCPASQSGDGVDGKKLMVNMSPIKDTDIWLHANDKDYSVELQRGDVSPPEQAFFVLHKKSSDFVSFECKNLPGTYIGVKDNQLALVEEKDESCNNIMFKLSKI
# Tests used:
# RET = conditions: cited from earlier work; for RET autophosphorylation: Tokugawa et al. 2003 (XIB4035, GDNF), Akeno-Stuart et al. 2007 (AST 487)
# [1] = test system: neurosphere-derived glial cells; assay: Activation of neurosphere-derived glial cells, alone or co-cultured with ILC3; assay type: cell-based, mice; conditions: for innate Il22 in ILC3 co-cultured with glial cells: 24 hours of co-culture, MYD88 dependent; for GFL expression in glial cells: activation of neurosphere-derived glial cells
# Protocol: Neurosphere-derived glial cells were obtained as previously described^60. Briefly, total intestines from E14.5 C57BL/6J and Myd88^−/− mice were digested with collagenase D (0.5 mg/mL; Roche) and DNase I (0.1 mg/mL; Roche) in DMEM/F-12, GlutaMAX, supplemented with 1% hepes, streptomycin/penicillin and 0.1% β-mercaptoethanol (Gibco) for approximately 30 minutes at 37° C. under gentle agitation. Cells were cultured during 1 week in a CO2 incubator at 37° C. in DMEM/F-12, GlutaMAX™, streptomycin and penicillin and 0.1% P3-mercaptoethanol (Gibco) supplemented with B27 (Gibco), EGF (Gibco) and FGF2 (Gibco) 20 ng/mL. After 1 week of culture cells were treated with 0.05% trypsin (Gibco), transferred into PDL (Sigma-Aldrich) coated plates and culture in DMEM supplemented with 10% FBS, 1% hepes, glutamine, streptomycin and penicillin and 0.1% β-mercaptoethanol (Gibco) until confluence. Glial cells were activated with TLR2 (5 μg/ml) (Pam3CSK4), TLR3 ([…]) (PolyI:C), TLR4 (50 ng/ml) (LPS), TLR9 ([…]) (DsDNA-EC) ligands from Invivogen and IL-1β (10 ng/mL) (401ML005), IL-18 (50 ng/mL) (B002-5), IL-33 (0.1 ng/mL) (3626ML) recombinant proteins from R&D Systems. Cells were also co-cultured with purified ILC3 from WT and Illb deficient mice. IL-22 expression in glial-ILC3 co-cultures upon TLR4 activation was also performed using GDNF ([…]) (AB-212-NA), NRTN ([…]) (AF-387sp) and ARTN (0.3 μg/mL) (AF-1085-sp) blocking antibodies. Cells were analysed after 24 hours of co-culture.
Molecule,activation of downstream effectors of RET (RET; Akeno-Stuart et al. 2007),RET autophosphorylation (RET),innate Il22 in ILC3 co-cultured with glial cells [1],GFL expression in glial cells [1]
"CCN1CCN(Cc2ccc(NC(=O)Nc3ccc(Oc4cc(NC)ncn4)cc3)cc2C(F)(F)F)CC1 [AST 487, 1-[4-[(4-ethylpiperazin-1-yl)methyl]-3-(trifluoromethyl)phenyl]-3-[4-[6-(methylamino)pyrimidin-4-yl]oxyphenyl]urea]",inhibit,inhibit,–,–
"CCN(CC)CCCC(C)Nc1cc(/C=C/c2ccccc2Cl)nc2cc(Cl)ccc12 (centres unmarked) [XIB4035, N(4)-(7-chloro-2-[(E)-2-(2-chloro-phenyl)-vinyl]-quinolin-4-yl)-N(1),N(1)-diethyl-pentane-1,4-diamine]",–,induced,–,–
B1,–,–,induced robust,efficiently controlled
B2,–,induced,–,–
B3,–,–,induced robust,efficiently controlled
